Data published in article PMC4619498.

Target: His-tagged recombinant Ebola virus glycoprotein (rGP) expressed in insect cells (Ebola virus (EBOV)) (UniProt Q05320)
Test: ELISA

| Substance | GP binding affinity (absorbance normalized by the negative control) | absorbance signal ratio between positive binding samples and blanks | ratio of GP-binding affinity to HA-RBD affinity (GP/HA) | GP binding affinity (absorbance normalized by the negative control) (normalized units) |
| --- | --- | --- | --- | --- |
| Fab-KZ52 | 16.6 | 10.2 | 3.91 |  |
| scFv-13C6 |  | 19.1 | 5 | 11.1 |
| scFv-13F6 |  | 13.9 | 4.48 | 9.65 |
